One block for each binder: values may come before it.
Experiments:
[1] = molecular target: T1, recombinant human RAGE-Fc fusion protein (manufactured by R&D Systems) (human, UniProt Q15109 24-344); assay: SPR (Biacore), HMGB-1 immobilised on C1 chip, RAGE-Fc (50000, 5000, 500 ng/mL) as analyte
T1 construct: Bought fusion protein; also called recombinant soluble RAGE-human IgG1 Fc chimeric protein; not shown: Fc of human IgG1
Text: (§1) Using an amine coupling kit (manufactured by Biacore), human plasma-derived Protein S (manufactured by Calbiochem), human plasma-derived complement C4 binding protein (C4BP; manufactured by BioMed), and human plasma-derived complement C1 inhibitor Berinert P (manufactured by CSL Behring) were respectively immobilized on flow cells of a CM5 sensor chip (manufactured by Biacore). An immobilized amount of the ligand protein on the respective flow cells was set to the range of 2400 to 3600 resonance units (hereinafter referred to as “RU”). The complement C4 binding protein and the complement C1 inhibitor are known as plasma glycoproteins having the anti-inflammatory effect. Then, a recombinant human RAGE-Fc fusion protein (manufactured by R&D Systems) diluted to given concentrations (50000, 25000, 12500, 6250, 3125, and 1562 ng/mL) using HBS-EP+buffer (manufactured by Biacore), as an analyte, was allowed to run and bind to the ligand-immobilized flow cells at a temperature of 25° C., a flow rate of 5 μL/min, association time of 140 seconds, and dissociation time of 240 seconds. The chip was regenerated by a flow of an aqueous glycine solution (pH 1.5) (manufactured by Biacore) for 60 seconds. […]

[2] = molecular target: T2, MSPS, purified recombinant human Protein S obtained from FUT8 knockout CHO/DG44 cells (human, UniProt P07225 42-676, gamma-carboxylated glutamic acid (Gla) in the Gla domain; complex type N-glycoside-linked sugar chains without fucose (fucose not detected)); assay: SPR (Biacore), HMGB-1 immobilised on C1 chip, MSPS as analyte
T2 construct: It differs from KCPS only in glycosylation (no core fucose); also called fucose-free recombinant Protein S
T2 sequence: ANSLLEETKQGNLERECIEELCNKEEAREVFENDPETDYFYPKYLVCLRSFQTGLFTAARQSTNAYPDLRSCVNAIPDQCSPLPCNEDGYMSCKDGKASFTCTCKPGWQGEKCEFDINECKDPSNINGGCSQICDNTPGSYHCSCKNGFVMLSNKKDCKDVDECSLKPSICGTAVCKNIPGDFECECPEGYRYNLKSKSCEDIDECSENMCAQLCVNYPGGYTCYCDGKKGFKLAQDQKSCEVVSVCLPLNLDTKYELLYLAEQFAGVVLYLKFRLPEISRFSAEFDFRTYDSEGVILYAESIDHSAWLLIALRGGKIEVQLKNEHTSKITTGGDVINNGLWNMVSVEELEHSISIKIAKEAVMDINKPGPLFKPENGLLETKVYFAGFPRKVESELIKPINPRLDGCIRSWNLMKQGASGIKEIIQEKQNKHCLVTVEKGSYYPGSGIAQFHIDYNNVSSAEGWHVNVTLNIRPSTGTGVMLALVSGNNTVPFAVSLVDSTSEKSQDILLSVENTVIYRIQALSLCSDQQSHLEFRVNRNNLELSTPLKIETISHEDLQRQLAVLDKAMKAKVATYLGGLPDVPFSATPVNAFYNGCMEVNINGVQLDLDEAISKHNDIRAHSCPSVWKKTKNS

[3] = molecular target: T1, recombinant human RAGE-Fc fusion …; assay: SPR (Biacore), S100A8/A9 immobilised on C1 chip, RAGE-Fc (50000, 5000, 500 ng/mL) as analyte
Text: as §1

[4] = molecular target: T2, MSPS, purified recombinant human …; assay: SPR (Biacore), S100A8/A9 immobilised on C1 chip, MSPS as analyte
Method: Using an amine coupling kit (manufactured by Biacore), recombinant human HMGB-1 (manufactured by R&D Systems), recombinant human Mac-1 heterodimer (αmβ2 integrin, CD11b/CD18; manufactured by R&D Systems), and recombinant human S100A8/A9 (manufactured by R&D Systems) were respectively immobilized at 200 RU, 1200 RU, and 400 RU on flow cells of a Series S C1 sensor chip (manufactured by Biacore). The measurement was carried out in the same manner as in Example 5, except that the recombinant human RAGE-Fc fusion protein (manufactured by R&D Systems) diluted to given concentrations of 50000, 5000 or 500 ng/mL was used as an analyte.
Next, using the same sensor chip, the same binding experiment was carried out using a recombinant human RAGE-Fc fusion protein (5000 ng/mL) mixed with MSPS (final concentration of 50000 and 5000 μg/mL), as an analyte.

[5] = molecular target: T3, human plasma-derived Protein S (manufactured by Calbiochem) (human, UniProt P07225 42-676, gamma-carboxylated glutamic acid (Gla) in the N-terminal Gla domain; complex type N-glycoside-linked sugar chains (Asn458, Asn468, Asn489), partly with core alpha1,6-fucose (Fuc 0.26 per Man 3.00)); assay: SPR (Biacore), plasma Protein S immobilised on CM5, E-selectin Fc as analyte
T3 construct: Bought protein purified from human plasma; also called native Protein S; Human plasma Protein S
T3 sequence: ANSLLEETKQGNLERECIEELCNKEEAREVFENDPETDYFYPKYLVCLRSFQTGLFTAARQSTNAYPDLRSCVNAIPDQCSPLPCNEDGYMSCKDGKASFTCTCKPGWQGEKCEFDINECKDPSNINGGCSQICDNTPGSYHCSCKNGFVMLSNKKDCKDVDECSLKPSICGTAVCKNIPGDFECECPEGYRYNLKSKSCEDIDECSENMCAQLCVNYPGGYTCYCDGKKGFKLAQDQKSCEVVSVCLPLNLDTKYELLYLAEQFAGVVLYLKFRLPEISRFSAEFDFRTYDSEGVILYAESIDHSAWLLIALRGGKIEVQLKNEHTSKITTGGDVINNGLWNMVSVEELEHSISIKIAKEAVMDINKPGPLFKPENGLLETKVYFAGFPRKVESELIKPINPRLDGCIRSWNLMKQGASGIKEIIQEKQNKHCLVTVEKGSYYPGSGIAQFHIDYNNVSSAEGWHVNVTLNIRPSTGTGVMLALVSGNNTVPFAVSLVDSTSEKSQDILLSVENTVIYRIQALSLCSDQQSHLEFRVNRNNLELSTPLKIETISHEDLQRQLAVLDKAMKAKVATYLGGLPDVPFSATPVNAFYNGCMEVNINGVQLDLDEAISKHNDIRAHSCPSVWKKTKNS

T1 sequence (Q15109 24-344 limits assumed): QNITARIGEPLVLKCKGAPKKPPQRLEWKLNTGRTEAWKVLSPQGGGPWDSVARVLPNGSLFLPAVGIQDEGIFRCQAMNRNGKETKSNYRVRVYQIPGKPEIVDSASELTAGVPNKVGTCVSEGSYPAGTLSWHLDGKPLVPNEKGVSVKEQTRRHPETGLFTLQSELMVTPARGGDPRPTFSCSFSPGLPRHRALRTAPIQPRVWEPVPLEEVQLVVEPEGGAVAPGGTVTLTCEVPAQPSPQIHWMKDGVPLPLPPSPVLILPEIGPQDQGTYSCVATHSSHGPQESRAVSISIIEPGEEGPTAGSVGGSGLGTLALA

binding result [1]: binds
binding result [2]: no binding
B1: recombinant human HMGB-1 (manufactured by R&D Systems) (ligand, UniProt P09429 1-215, looked up)
chain: MGKGDPKKPRGKMSSYAFFVQTCREEHKKKHPDASVNFSEFSKKCSERWKTMSAKEKGKFEDMAKADKARYEREMKTYIPPKGETKKKFKDPNAPKRPPSAFFLFCSEYRPKIKGEHPGLSIGDVAKKLGEMWNNTAADDKQPYEKKAAKLKEKYEKDIAAYRAKGKPDAAKKGVVKAEKSKKKKEEEEDEEDEEDEEEEEDEEDEDEEEDDDDE

binding result [3]: binds
binding result [4]: no binding
B2: recombinant human S100A8/A9 (manufactured by R&D Systems) (ligand)
chain 1: MLTELEKALNSIIDVYHKYSLIKGNFHAVYRDDLKKLLETECPQYIRKKGADVWFKELDINTDGAVNFQEFLILVIKMGVAAHKKSHEESHKE
chain 2: MTCKMSQLERNIETIINTFHQYSVKLGHPDTLNQGEFKELVRKDLQNFLKKENKNEKVIEHIMEDLDTNADKQLSFEEFIMLMARLTWASHEKMHEGDEGPGHHHKPGLGEGTP
notes: Bought

binding result [5]: no binding
B3: human E-selectin Fc fusion protein (manufactured by R&D systems) (Fc fusion, UniProt P16581 22-556, looked up)
chain: WSYNTSTEAMTYDEASAYCQQRYTHLVAIQNKEEIEYLNSILSYSPSYYWIGIRKVNNVWVWVGTQKPLTEEAKNWAPGEPNNRQKDEDCVEIYIKREKDVGMWNDERCSKKKLALCYTAACTNTSCSGHGECVETINNYTCKCDPGFSGLKCEQIVNCTALESPEHGSLVCSHPLGNFSYNSSCSISCDRGYLPSSMETMQCMSSGEWSAPIPACNVVECDAVTNPANGFVECFQNPGSFPWNTTCTFDCEEGFELMGAQSLQCTSSGNWDNEKPTCKAVTCRAVRQPQNGSVRCSHSPAGEFTFKSSCNFTCEEGFMLQGPAQVECTTQGQWTQQIPVCEAFQCTALSNPERGYMNCLPSASGSFRYGSSCEFSCEQGFVLKGSKRLQCGPTGEWDNEKPTCEAVRCDAVHQPPKGLVRCAHSPIGEFTYKSSCAFSCEEGFELHGSTQLECTSQGQWTEEVPSCQVVKCSSLAVPGKINMSCSGEPVFGTVCKFACPEGWTLNGSAARTCGATGHWSGLLPTCEAPTESNIP
notes: Fc-bearing control protein; bought; not shown: Fc, described as similar to the Fc of human IgG1 contained in the RAGE-Fc fusion protein

— US20100162418A1 (Kyowa Kirin, published 2010)
